In patent US20240059799A1 (Pfizer, published 2024):

T1: recombinant human TL1A (human, UniProt O95150 71-251)
T1 chain: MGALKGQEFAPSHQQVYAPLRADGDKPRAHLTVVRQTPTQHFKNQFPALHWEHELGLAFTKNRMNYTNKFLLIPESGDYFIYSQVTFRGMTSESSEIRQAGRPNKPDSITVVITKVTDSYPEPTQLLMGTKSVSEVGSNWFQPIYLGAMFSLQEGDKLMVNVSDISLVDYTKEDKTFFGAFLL

T2: recombinant human TL1A (human, UniProt O95150 71-251)
T2 construct: homotrimer; biotinylated for SPR capture; the ELISA paragraphs say only 'recombinant TL1A'; also called TNFSF15
T2 chain: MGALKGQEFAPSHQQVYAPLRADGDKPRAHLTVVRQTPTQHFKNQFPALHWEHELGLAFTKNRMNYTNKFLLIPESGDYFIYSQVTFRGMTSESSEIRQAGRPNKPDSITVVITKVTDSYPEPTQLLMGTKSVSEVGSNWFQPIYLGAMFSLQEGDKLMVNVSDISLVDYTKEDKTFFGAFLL

B1: TL1A-0042 (antibody, human IgG1, kappa, V domains shown)
VH: QVQLVQSGAEVKKPGASVKVSCKASGYDFTYYGISWVRQAPGQGLEWMGWISTYNGNTHYARMLQGRVTMTTDTSTRTAYMELRSLRSDDTAVYYCARENYYGSGAYRGGMDVWGQGTTVTVSS
VL: DIQMTQSPSSLSASVGDRVTITCRASQSVSSYLAWYQQKPGKAPKLLIYDASNRATGVPSRFSGSGSGTDFTLTISSLQPEDFATYYCQQRSNWPWTFGQGTKVEIKR
notes: parental heavy chain with IGKV1-39*01 light chain; human IgG1 effector-function-minimized/kappa
B2: TL1A-0025 (antibody, V domains shown)
VH: QVQLVQSGAEVKKPGASVKVSCKASGYDFTYYGISWVRQAPGQGLEWMGWISTYNGNDHYADSLQGRVTMTTDTSTRTAYMELRSLRSDDTAVYYCARENYYGSGAYRGGMDVWGQGTTVTVSS
VL: EIVLTQSPATLSLSPGERATLSCRASQSVSSYLAWYQQKPGQAPRLLIYDASNRATGIPARFSGSGSGTDFTLTISSLEPEDFAVYYCQQRSNWPWTFGQGTKVEIKR
B3: TL1A-0266 (antibody, human IgG1, kappa, V domains shown)
VH: QVQLVQSGAEVKKPGASVKVSCKASGYDYTYYGISWVRQAPGQGLEWMGWISTYNTNTHYAPSLQGRVTMTTDTSTSTAYMELRSLRSDDTAVYYCARESYYGSGAFRGGMDVWGQGTTVTVSS
VL: DIQMTQSPSSLSASVGDRVTITCRASQSVSSYLAWYQQKPGKAPKLLIYDASNRATGVPSRFSGSGSGTDFTLTISSLQPEDFATYYCQQRSNWPWTFGQGTKVEIKR
notes: human IgG1 effector-function-minimized/kappa
B4: TL1A-0196 (antibody, IgG1, V domains shown)
VH: QVQLVQSGAEVKKPGASVKVSCKASGYDFTYYGISWVRQAPGQGLEWMGWISTYNGNTHYARMLQGRVTMTTDTSTRTAYMELRSLRSDDTAVYYCARESYYGSGEYRGGMDVWGQGTTVTVSS
VL: EIVLTQSPATLSLSPGERATLSCRASQSVSSYLAWYQQKPGQAPRLLIYDASNRATGIPARFSGSGSGTDFTLTISSLEPEDFAVYYCQQRSNWPWTFGQGTKVEIKR
notes: IgG1/kappa variant of TL1A-0002
B5: TL1A-0263 (antibody, human IgG1, kappa, V domains shown)
VH: QVQLVQSGAEVKKPGASVKVSCKASGYDYTYYGISWVRQAPGQGLEWMGWISTYNTGTHYAQKLQGRVTMTTDTSTSTAYMELRSLRSDDTAVYYCARESYYGSGAHRGGMDVWGQGTTVTVSS
VL: DIQMTQSPSSLSASVGDRVTITCRASQSVSSYLAWYQQKPGKAPKLLIYDASNRATGVPSRFSGSGSGTDFTLTISSLQPEDFATYYCQQRSNWPWTFGQGTKVEIKR
notes: as for B3
B6: TL1A-0195 (antibody, IgG1, V domains shown)
VH: QVQLVQSGAEVKKPGASVKVSCKASGYDFTYYGISWVRQAPGQGLEWMGWISTYNGNTHYARMLQGRVTMTTDTSTRTAYMELRSLRSDDTAVYYCAREQYYGSGAHRGGMDVWGQGTTVTVSS
VL: EIVLTQSPATLSLSPGERATLSCRASQSVSSYLAWYQQKPGQAPRLLIYDASNRATGIPARFSGSGSGTDFTLTISSLEPEDFAVYYCQQRSNWPWTFGQGTKVEIKR
notes: as for B4
B7: TL1A-0160 (antibody, IgG1, V domains shown)
VH: QVQLVQSGAEVKKPGASVKVSCKASGYDFTYYGISWVRQAPGQGLEWMGWISTYNGNEHYAPSLQGRVTMTTDTSTRTAYMELRSLRSDDTAVYYCARENYYGSGLYRGGMDVWGQGTTVTVSS
VL: EIVLTQSPATLSLSPGERATLSCRASQSVSSYLAWYQQKPGQAPRLLIYDASNRATGIPARFSGSGSGTDFTLTISSLEPEDFAVYYCQQRSNWPWTFGQGTKVEIKR
notes: as for B4
B8: TL1A-0194 (antibody, IgG1, V domains shown)
VH: QVQLVQSGAEVKKPGASVKVSCKASGYDFTYYGISWVRQAPGQGLEWMGWISTYNGNTHYARMLQGRVTMTTDTSTRTAYMELRSLRSDDTAVYYCAREQYYGSGAFRGGMDVWGQGTTVTVSS
VL: EIVLTQSPATLSLSPGERATLSCRASQSVSSYLAWYQQKPGQAPRLLIYDASNRATGIPARFSGSGSGTDFTLTISSLEPEDFAVYYCQQRSNWPWTFGQGTKVEIKR
notes: as for B4
B9: TL1A-0250 (antibody, IgG1, V domains shown)
VH: QVQLVQSGAEVKKPGASVKVSCKASGYDFTYYGISWVRQAPGQGLEWMGWISTYNTVTHYAPSLQGRVTMTTDTSTSTAYMELRSLRSDDTAVYYCARESYYGSGAFRGGMDVWGQGTTVTVSS
VL: DIQMTQSPSSLSASVGDRVTITCRASQSVSSYLAWYQQKPGKAPKLLIYDASNRATGVPSRFSGSGSGTDFTLTISSLQPEDFATYYCQQRSNWPWTFGQGTKVEIKR
notes: IgG1/kappa
B10: TL1A-0193 (antibody, IgG1, V domains shown)
VH: QVQLVQSGAEVKKPGASVKVSCKASGYDFTYYGISWVRQAPGQGLEWMGWISTYNGNTHYARMLQGRVTMTTDTSTRTAYMELRSLRSDDTAVYYCAREQYYGSGEYRGGMDVWGQGTTVTVSS
VL: EIVLTQSPATLSLSPGERATLSCRASQSVSSYLAWYQQKPGQAPRLLIYDASNRATGIPARFSGSGSGTDFTLTISSLEPEDFAVYYCQQRSNWPWTFGQGTKVEIKR
notes: as for B4
B11: TL1A-0167 (antibody, human IgG1, kappa, V domains shown)
VH: QVQLVQSGAEVKKPGASVKVSCKASGYDFTYYGISWVRQAPGQGLEWMGWISTYNGNTHYARMLQGRVTMTTDTSTSTAYMELRSLRSDDTAVYYCARENYYGSGAYRGGMDVWGQGTTVTVSS
VL: EIVLTQSPATLSLSPGERATLSCRASQSVSSYLAWYQQKPGQAPRLLIYDASNRATGIPARFSGSGSGTDFTLTISSLEPEDFAVYYCQQRSNWPWTFGQGTKVEIKR
notes: TL1A-0002 heavy chain with R(H76)S, TL1A-0002 light chain
B12: TL1A-0262 (antibody, human IgG1, kappa, V domains shown)
VH: QVQLVQSGAEVKKPGASVKVSCKASGYDYTYYGISWVRQAPGQGLEWMGWISTYNTGTHYAQKLQGRVTMTTDTSTSTAYMELRSLRSDDTAVYYCARESYYGSGAFRGGMDVWGQGTTVTVSS
VL: DIQMTQSPSSLSASVGDRVTITCRASQSVSSYLAWYQQKPGKAPKLLIYDASNRATGVPSRFSGSGSGTDFTLTISSLQPEDFATYYCQQRSNWPWTFGQGTKVEIKR
notes: as for B3
B13: TL1A-0197 (antibody, IgG1, V domains shown)
VH: QVQLVQSGAEVKKPGASVKVSCKASGYDFTYYGISWVRQAPGQGLEWMGWISTYNGNTHYARMLQGRVTMTTDTSTRTAYMELRSLRSDDTAVYYCARESYYGSGAFRGGMDVWGQGTTVTVSS
VL: EIVLTQSPATLSLSPGERATLSCRASQSVSSYLAWYQQKPGQAPRLLIYDASNRATGIPARFSGSGSGTDFTLTISSLEPEDFAVYYCQQRSNWPWTFGQGTKVEIKR
notes: as for B4
B14: TL1A-0098 (antibody, IgG1, V domains shown)
VH: QVQLVQSGAEVKKPGASVKVSCKASGYDFTYYGISWVRQAPGQGLEWMGWISTYNGNTHYARMLQGRVTMTTDTSTRTAYMELRSLRSDDTAVYYCAREEYYGSGAYRGGMDVWGQGTTVTVSS
VL: EIVLTQSPATLSLSPGERATLSCRASQSVSSYLAWYQQKPGQAPRLLIYDASNRATGIPARFSGSGSGTDFTLTISSLEPEDFAVYYCQQRSNWPWTFGQGTKVEIKR
notes: as for B4
B15: TL1A-0147 (antibody, IgG1, V domains shown)
VH: QVQLVQSGAEVKKPGASVKVSCKASGYDFTYYGISWVRQAPGQGLEWMGWISTYNGNEHYAQKLQGRVTMTTDTSTRTAYMELRSLRSDDTAVYYCARENYYGSGAYRGGMDVWGQGTTVTVSS
VL: EIVLTQSPATLSLSPGERATLSCRASQSVSSYLAWYQQKPGQAPRLLIYDASNRATGIPARFSGSGSGTDFTLTISSLEPEDFAVYYCQQRSNWPWTFGQGTKVEIKR
notes: as for B4
B16: TL1A-0261 (antibody, human IgG1, kappa, V domains shown)
VH: QVQLVQSGAEVKKPGASVKVSCKASGYDYTYYGISWVRQAPGQGLEWMGWISTYNTGTHYAPSLQGRVTMTTDTSTSTAYMELRSLRSDDTAVYYCARESYYGSGAHRGGMDVWGQGTTVTVSS
VL: DIQMTQSPSSLSASVGDRVTITCRASQSVSSYLAWYQQKPGKAPKLLIYDASNRATGVPSRFSGSGSGTDFTLTISSLQPEDFATYYCQQRSNWPWTFGQGTKVEIKR
notes: as for B3

What was measured:
recombinant human TL1A [1] = target: T1, recombinant human TL1A; assay: cell-based or functional assay
recombinant human TL1A [2] = target: T1, recombinant human TL1A; assay: competition ELISA, coated TL1A, competitor bio-TL1A-0002
Protocol: For this competition ELISA assay procedure, 96-well high binding plates (Corning, product number 3590) were coated with 1 μg/mL recombinant TL1A in 100 μL/well in Phospate Buffered Saline (PBS) overnight at 4° C. Plates were then blocked in PBS+0.02% casein solution and washed with PBS+0.05% Tween-20 following standard ELISA protocol. […] Plates were washed with PBS+0.05% Tween-20 following standard ELISA protocol, and Streptavidin-HRP (Southern Biotech, product number 7100-05) diluted to 1:10,000 in assay buffer was added to plates and incubated for 25-30 minutes at room temperature. Next, the plates were washed with PBS+0.05% Tween-20 following standard ELISA protocol, and then TMB substrate (BioFX Laboratories, catalog number TMBW-0100-01) was added to plates. Reactions were stopped after approximately 5 minutes by adding 0.18 M ortho-phosphoric acid to each well and absorbance was read at 450 nm.

recombinant human TL1A [3] = target: T2, recombinant human TL1A; assay: competition ELISA vs bio-TL1A-0002

Binder	TF-1 NF-κB reporter cell bioassay IC50 (recombinant human TL1A [1]) [nM]	TF-1 NF-κB reporter cell bioassay, Bioactivity relative to TL1A-0002 (recombinant human TL1A [1]) [fold]	Whole blood IFNγ assay IC50 (recombinant human TL1A [1]) [nM]	Whole blood IFNγ assay, Bioactivity relative to TL1A-0002 (recombinant human TL1A [1]) [fold]	Bioactivity relative to TL1A-0002 (recombinant human TL1A [2]) [fold]	IC50 (recombinant human TL1A [2]) [nM]	Bioactivity relative to TL1A-0002 (recombinant human TL1A [3]) [fold]	IC50 (recombinant human TL1A [3]) [nM]	fold reduction of TL1A binding properties compared to TL1A-0002 (recombinant human TL1A [3]) [fold]
B1	25.9	0.7	0.748	0.9	0.8	4.2	–	–	–
B2	–	–	–	–	–	–	1.6	7.2	–
B3	37	1.1	0.745	0.9	1.3	6.6	–	–	–
B4	–	–	–	–	–	–	2.7	11.9	–
B5	40.4	1.2	0.932	1.1	1.2	6.2	–	–	–
B6	–	–	–	–	–	–	1.8	8.2	–
B7	–	–	–	–	–	–	2	9.1	–
B8	–	–	–	–	–	–	1.8	8.3	–
B9	–	–	–	–	–	–	–	–	> 300
B10	–	–	–	–	–	–	2.7	12	–
B11	–	–	–	–	–	–	0.9	4.2	–
B12	43.9	1.3	1.03	1.2	1.4	7.3	–	–	–
B13	–	–	–	–	–	–	1.9	8.7	–
B14	–	–	–	–	–	–	1.5	6.6	–
B15	–	–	–	–	–	–	1.6	7.2	–
B16	29.5	0.8	0.923	1.1	1.1	5.6	–	–	–
